Data from patent US20260242478A1 (published 2026).
Where no end group is shown, it is not given here.

B1: Phage-3814 (peptide)
peptide: EFKWCVPDWMCYGV
modifications: cysteine pairing not given here; also: displayed on phage as fusion to pIII, junction not given here
B2: Phage-3818 (peptide)
peptide: ENAKCSPAWMCVGF
B3: Phage-3823 (peptide)
peptide: QVKYCEPQWMCAGL
modifications: cysteine pairing not given here; also: displayed on phage as fusion to pIII, junction not given here
B4: Phage-3842 (peptide)
peptide: LYEMCKPLWMCAGF
B5: Phage-3837 (peptide)
peptide: DPVWCIPQWMCEGF
B6: Phage-3840 (peptide)
peptide: PYSICKPDWMCTGL
B7: Phage-3817 (peptide)
peptide: ATVVCSPPWMCTGF
B8: Phage-3831 (peptide)
peptide: GMKTCVPAWMCVGF
B9: Phage-3836 (peptide)
peptide: VLHKCLPTWMCNGF
B10: Phage-3813 (Peptide-180 library clone, SEQ ID NO: 4129) (peptide)
peptide: YTAMCVPVWMCNVL
modifications: cysteine pairing not given here; also: displayed on phage as fusion to pIII, junction not given here
notes: Tested as clonal phage supernatant; not shown: pIII coat protein of the bacteriophage to which the peptide is fused
B11: Phage-3816 (peptide)
peptide: LDLSCVPAWMCTGF
B12: Phage-3838 (peptide)
peptide: SDYMCRPSWMCEGL
B13: Phage-3844 (peptide)
peptide: SDMVCKPPWMCYGF
B14: Phage-3827 (peptide)
peptide: VDRMCVPPWMCDVL
B15: Phage-3841 (peptide)
peptide: SEMRCSPPWMCYGF
B16: Phage-3843 (peptide)
peptide: PFLACIPQWMCEVV
B17: Phage-3819 (peptide)
peptide: VHIMCVPPWMCERF
B18: Phage-3839 (peptide)
peptide: NYNACVPIWMCEGF
B19: Phage-3822 (peptide)
peptide: QEPVCRPAWMCSGF
B20: Phage-3834 (peptide)
peptide: VDRVCIPTWMCEGI
B21: Phage-3832 (peptide)
peptide: TSVLCQPLWMCSGF
B22: Phage-3821 (peptide)
peptide: PQIWCVPTWMCAAS
modifications: cysteine pairing not given here; also: displayed on phage as fusion to pIII, junction not given here
B23: Phage-3824 (peptide)
peptide: EAPYCRPSWMCAGF
modifications: cysteine pairing not given here; also: displayed on phage as fusion to pIII, junction not given here
B24: Phage-3825 (peptide)
peptide: PGMVCKPSWMCSHL
B25: Phage-3815 (peptide)
peptide: ASISCIPDWMCHGF
B26: Phage-3828 (peptide)
peptide: IDRHCIPAWMCEQF
B27: Phage-3820 (peptide)
peptide: LLERCVPSWMCLGF
B28: Phage-3830 (peptide)
peptide: PPRACVPSWMCTGF
B29: Phage-3826 (peptide)
peptide: VQHWCVPAWMCYGL
B30: Phage-3835 (peptide)
peptide: FWQRCVPTWMCEGF
B31: Phage-3833 (peptide)
peptide: VGIRCEPAWMCEGF
B32: Phage-3829 (peptide)
peptide: PEIRCAPLWMCVGF
B33: Phage-3845 (peptide)
peptide: SGLSCVPFWMCTGF

Legend:
PSMA Fab (006 PSMA Fab) [1] = target: T1, PSMA Fab (006 PSMA Fab); experiment: clonal phage ELISA on captured PSMA Fab pre-incubated with PSMA antigen as competitor, anti-M13-HRP detection;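 note: wells blocked with buffer plus PSMA antigen before phage addition, with blocking buffer alone as the no-competitor control, bound phage detected after washing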
T1 construct: also called Anti-PSMA Fab
Procedure: (§1) Clonal phage were harvested as crude supernatants and screened via standard ELISAs. […] Prior to the addition of clonal phage. wells were incubated with blocking buffer and PSMA antigen or blocking buffer alone. Without washing or aspirating, clonal phage supernatants were then added to the wells and incubated for a short time. Wells were then washed followed by detection of bound phage using a horse radish conjugated anti-M13 antibody.

PSMA Fab (006 PSMA Fab) [2] = target: T1, PSMA Fab (006 PSMA Fab); experiment: clonal phage ELISA on biotinylated PSMA Fab captured on neutravidin plates, anti-M13-HRP detection;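 note: crude clonal phage supernatants added to wells preincubated with PSMA antigen or with blocking buffer only (no wash between), briefly incubated, then washed before detecting bound phage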
Procedure: as §1

PSMA Fab [3] = target: T2, PSMA Fab (biotinylated (site not stated)); experiment: phage ELISA; biotinylated PSMA Fab on neutravidin plate, clonal phage supernatant, anti-M13 HRP detection;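 note: wells preincubated with PSMA antigen in blocking buffer or with blocking buffer only before clonal phage were added for a short incubation, then bound phage detected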
T2 construct: Biotinylated PSMA Fab captured on neutravidin coated plates in the phage ELISA; also called Anti-PSMA Fab; 006 PSMA Fab

PSMA Fab [4] = target: T2, PSMA Fab; experiment: phage ELISA; biotinylated PSMA Fab on neutravidin plate pre-incubated with PSMA antigen as competitor, anti-M13 HRP detection;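 note: crude clonal phage supernatants tested, compared against control wells pre-incubated with blocking buffer only, without PSMA antigen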
Procedure: as §1

PSMA Fab (006 PSMA Fab) [5] = target: T3, PSMA Fab (006 PSMA Fab) (biotinylated (site not stated)); experiment: clonal phage ELISA on plate-captured biotinylated PSMA Fab, blocking buffer alone, anti-M13 HRP detection
T3 construct: also called Anti-PSMA Fab

PSMA Fab (006 PSMA Fab) [6] = target: T3, PSMA Fab (006 PSMA Fab); experiment: clonal phage ELISA on plate-captured biotinylated PSMA Fab pre-incubated with PSMA antigen as competitor, anti-M13 HRP detection
Procedure: as §1

[7] = target: T4, PSMA Fab (SEQ ID NOs: 19, 20); experiment: clonal phage ELISA; biotinylated PSMA Fab captured on neutravidin plate, bound phage detected with anti-M13-HRP
T4 construct: also called Anti-PSMA Fab; 006 PSMA Fab
Procedure: as §1

[8] = target: T4, PSMA Fab (SEQ ID NOs: 19, 20); experiment: clonal phage ELISA; captured biotinylated PSMA Fab pre-incubated with PSMA antigen as competitor, anti-M13-HRP detection
Procedure: as §1

| Binder | Phage binding ELISA signal, Anti-PSMA Fab with PSMA antigen (PSMA Fab (006 PSMA Fab) [1]) | Phage binding ELISA signal, Anti-PSMA Fab (PSMA Fab (006 PSMA Fab) [2]) | Phage binding ELISA signal, Anti-PSMA Fab (PSMA Fab (006 PSMA Fab) [5]) | Phage binding ELISA signal, Anti-PSMA Fab in presence of PSMA (PSMA Fab (006 PSMA Fab) [6]) | further results |
| --- | --- | --- | --- | --- | --- |
| B1 | 0.0589 | 1.29 | – | – | – |
| B2 | 0.0752 | 1.27 | – | – | – |
| B3 | 0.0788 | 1.25 | – | – | – |
| B4 | – | – | – | – | Phage binding ELISA signal, Anti-PSMA Fab (PSMA Fab [3]): 1.22; Phage binding ELISA signal, Anti-PSMA Fab in presence of PSMA (PSMA Fab [4]): 0.0737 |
| B5 | – | – | 1.23 | 0.0652 | – |
| B6 | – | – | 1.22 | 0.0653 | – |
| B7 | 0.0662 | 1.27 | – | – | – |
| B8 | – | – | 1.24 | 0.08 | – |
| B9 | – | – | 1.23 | 0.0967 | – |
| B10 | – | – | – | – | Phage binding ELISA signal, Anti-PSMA Fab [7]: 1.29; Phage binding ELISA signal, Anti-PSMA Fab with PSMA antigen [8]: 0.0695 |
| B11 | 0.0963 | 1.28 | – | – | – |
| B12 | – | – | 1.23 | 0.0632 | – |
| B13 | – | – | – | – | Phage binding ELISA signal, Anti-PSMA Fab (PSMA Fab [3]): 1.22; Phage binding ELISA signal, Anti-PSMA Fab in presence of PSMA (PSMA Fab [4]): 0.0897 |
| B14 | 0.0859 | 1.24 | – | – | – |
| B15 | – | – | 1.22 | 0.0822 | – |
| B16 | – | – | – | – | Phage binding ELISA signal, Anti-PSMA Fab (PSMA Fab [3]): 1.22; Phage binding ELISA signal, Anti-PSMA Fab in presence of PSMA (PSMA Fab [4]): 0.247 |
| B17 | 0.0664 | 1.27 | – | – | – |

| Binder | Phage binding ELISA signal, Anti-PSMA Fab with PSMA antigen (PSMA Fab (006 PSMA Fab) [1]) | Phage binding ELISA signal, Anti-PSMA Fab (PSMA Fab (006 PSMA Fab) [2]) | Phage binding ELISA signal, Anti-PSMA Fab (PSMA Fab (006 PSMA Fab) [5]) | Phage binding ELISA signal, Anti-PSMA Fab in presence of PSMA (PSMA Fab (006 PSMA Fab) [6]) | further results |
| --- | --- | --- | --- | --- | --- |
| B18 | – | – | 1.22 | 0.104 | – |
| B19 | 0.0764 | 1.26 | – | – | – |
| B20 | – | – | 1.23 | 0.0575 | – |
| B21 | – | – | 1.24 | 0.0785 | – |
| B22 | 0.0743 | 1.26 | – | – | – |
| B23 | 0.0837 | 1.25 | – | – | – |
| B24 | 0.107 | 1.25 | – | – | – |
| B25 | 0.0872 | 1.28 | – | – | – |
| B26 | – | – | 1.24 | 0.0571 | – |
| B27 | 0.102 | 1.26 | – | – | – |
| B28 | – | – | 1.24 | 0.0854 | – |
| B29 | 0.107 | 1.24 | – | – | – |
| B30 | – | – | 1.23 | 0.148 | – |
| B31 | – | – | 1.24 | 0.0645 | – |
| B32 | – | – | 1.24 | 0.0725 | – |
| B33 | – | – | – | – | Phage binding ELISA signal, Anti-PSMA Fab (PSMA Fab [3]): 1.21; Phage binding ELISA signal, Anti-PSMA Fab in presence of PSMA (PSMA Fab [4]): 0.0662 |
